Data published in the nanobody polyreactivity screen of Harvey et al. (2022).

Assay: yeast display, Sf9 membrane polyspecificity reagent, FACS + sequencing; frameworks hold sequencing errors
Outline: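 Galactose-induced (36–48 hours) yeast carrying a synthetic nanobody display library were exposed to 10% biotinylated, detergent-solubilized Sf9 membrane reagent at 4 °C for 1 hour. FACS followed streptavidin microbead enrichment, using low and high (top ~1%) gates for expression (anti-HA) and reagent binding (streptavidin). Colony PCR, MiSeq 2 × 250 sequencing and CDR-length filtering followed. Labels for polyreactivity reflect the gate of origin.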

With “QVQLVESGGGLVQAGGSLRLSCAASGSTFLYYGMGWYRQSPGYERELVATITWRGGRTYYADSVKGRYTISRDNAKNTVYLQMNSLKPEDTAVYYCARVRLTTYGYYSWGQGTQVTVSS” as the sequence, how does the “polyreactivity (PSR sort gate)” value read?
The value was “high polyreactivity”.

For “QVQLVESGGGLVQAGGSLRLSCAASGSTFLYYTMGWYRPAPGKERELVAAITSGGDTNYPDSVKGRFTISRDNAKNTVYLQMNSLKPEDTAVYYCNAEYTLSGTKIYTYKYDYRGQGTQVTVSS”, which “polyreactivity (PSR sort gate)” value is on record?
Its value is “low polyreactivity”.

Which “polyreactivity (PSR sort gate)” value does the source give for “QVQLVESGGGLVQAGGSLRLSCAASGSTFLYYTMGWYRQAPGKERELVAAITGSGTSTYYADSVKGRFTISRDNAKNTVYLQMNSLKPEDTAVYYCAARGHGRLYYWGQGTQVTVSS” here?
Its value is “high polyreactivity”.

For “QVQLVESGGGLVQAGGSLRLSCAASGSTFNAYAMGWYRQAPGKERELVAAISYTGGSTYYADSVKGRFTISRDNAKNTVYLQMNSLKPDDTAVYYCARRQARKFYYWGQGTQVTVSS”, which “polyreactivity (PSR sort gate)” value is on record?
The value was “high polyreactivity”.

Which “polyreactivity (PSR sort gate)” value does the source give for “QVQLVESGGGLVQAGGSLRLSCAASGSTFNGNVMGWYRQAPGKERELVAGISKSGGTTYYADSVKGRFTISRDNAKNTVYLQMNSLKPEDTAVYYCAARGRVRYYPQYDYWGQGTQVTVSS” here?
The value was “high polyreactivity”.

Which “polyreactivity (PSR sort gate)” value does the source give for “QVQLVESGGGLVQAGGSLRLSCAASGSTFNHYAMGWYRQAPGKERELVAAITKSGGSTYADSVKGRFTISRDNAKNTVYLQMNSLKPEDTAVYYCAAGRRKYGTKGRGDYWGQGTQVTVSS” here?
The value was “low polyreactivity”.

For “QVQLVESGGGLVQAGGSLRLSCAASGSTFNIYAMGWYRQAPGKERELVATISWTGGRTFYADSVKGRFTISRDNAKNTVYLQMNSLKPEDTAVYYCNKASTGGYDYWGQGTQVTVSS”, which “polyreactivity (PSR sort gate)” value is on record?
The value was “high polyreactivity”.

Which “polyreactivity (PSR sort gate)” value does the source give for “QVQLVESGGGLVQAGGSLRLSCAASGSTFNIYVMGWYRQAPGKERELVADITTSGRTYYADSVKGRFTISRDNAKNTVYVQMNSLKPEDTAVYYCADATGTYGRGGYYWGQGTQLTVSS” here?
The value was “high polyreactivity”.

For “QVQLVESGGGLVQAGGSLRLSCAASGSTFNKYAMGWYRPAPGKERELVAVITKRGGSTYYADSVKGRFTISRDNAKNTVYLQMNSLKPEDTAVYYCAASSLYYGYDYWGQGTQVTVSS”, which “polyreactivity (PSR sort gate)” value is on record?
The value was “high polyreactivity”.

Which “polyreactivity (PSR sort gate)” value does the source give for “QVQLVESGGGLVQAGGSLRLSCAASGSTFNLNAMGWYRQAPGKERELVAAIDSGGRTNYADSVKGRFTISRDNAKNTVYLQMNSLKPEDTAVYYCAARVLPYLTPRRQMYYWGQGTQVTVSS” here?
Its value is “low polyreactivity”.

With “QVQLVESGGGLVQAGGSLRLSCAASGSTFNLYAMGWYRQAPGKERELVASISRSGVSTYYADSVKGRFTISRDNAKNTVYLQMNRLKPEDTAVYYCAVDKVLYRLYPGMDYWGQGTQVTVSS” as the sequence, how does the “polyreactivity (PSR sort gate)” value read?
The value was “low polyreactivity”.

With “QVQLVESGGGLVQAGGSLRLSCAASGSTFNNNAMGWYRQAPGKERELVAAISYTGGSTYYADSVKGRFTISRDNAKNTVYLQMKSLKPEDTAVYYCDAAYPHFGGYRYDYWGQGTQVTVSS” as the sequence, how does the “polyreactivity (PSR sort gate)” value read?
The value was “high polyreactivity”.

For “QVQLVESGGGLVQAGGSLRLSCAASGSTFNQYAMGWYRQAPGKEREFVATITWSGGRTYYADSVKGRFTISRDNAKNTVYLQMISLKPEDTAVYYCAAQPDYRPSYGYGYWGQGTQVTVSS”, which “polyreactivity (PSR sort gate)” value is on record?
Its value is “low polyreactivity”.

Which “polyreactivity (PSR sort gate)” value does the source give for “QVQLVESGGGLVQAGGSLRLSCAASGSTFNRYALGWYRQAPGKEREFVAAISTRGGSTHYADSVKGRFTISRDNAKNTVYLQMNSLKPEDTAVYYCNARGYYSVPSNTGIRYYRFDYWGQGTQVTVSS” here?
Its value is “low polyreactivity”.

For “QVQLVESGGGLVQAGGSLRLSCAASGSTFNRYAMGWYRQAHGKERELVAGISYRGGTYYSDSVKGRFTISRDNAKNTVYLQMNSLKPEDTAVYYCNVVRRGTTSYDDYEYWGQGTQVTVSS”, which “polyreactivity (PSR sort gate)” value is on record?
The value was “high polyreactivity”.

For “QVQLVESGGGLVQAGGSLRLSCAASGSTFNRYAMGWYRQAPGKERELVAAITRSGTSTYYADSVKGRFTISRDNAKNTVYLQMNSLKPEDTAVYYCAAVRYAVHFSYDYWGQGTQVTVSS”, which “polyreactivity (PSR sort gate)” value is on record?
The value was “high polyreactivity”.

For “QVQLVESGGGLVQAGGSLRLSCAASGSTFNRYAMGWYRQAPGKERELVAAITSTGGTNYADSVKGRFTISLDNAKNTVYLQMYSLKPEDTAVYYCAKRWLRGRSNYWGHGTQVTVSS”, which “polyreactivity (PSR sort gate)” value is on record?
Its value is “high polyreactivity”.
